This is an account of results in PMC6591306.

Holding throughout (assay): cysteine cross-linking, non-reducing SDS-PAGE, quantification of fluorescent blots
The target of assay [1] is double mutant of GB1 carrying one cysteine in TM5 (I771C^5.42) and one in TM7 (L838C^7.34). The conditions noted are these: + CuP, co-expressed with GB2Ctr, parent: est. 2, read off a plot.
In the next assay the target is GB1 1.45/6.55. The conditions noted are these: + CuP, co-expressed with GB2Ctr, parent: est. 2, read off a plot.
The target of a further assay is GB2^5.40. Conditions: + CuP; cell surface SNAP-GB1 labelled with fluorescent SNAP substrate; no ligand; parent: est. 2; read off a plot.
A further assay concerns the target GB1 4.52/6.55. The conditions noted are these: + CuP, co-expressed with GB2Ctr, parent: est. 2, read off a plot.
Assay [2] deals with GB1 double cysteine mutant with one cysteine in TM4 and one in TM7 (co-expressed with a non-mutated GB2). Conditions: + CuP, co-expressed with GB2Ctr, parent: est. 2, read off a plot.
Assay [3] deals with GB2^5.42 (cysteine mutant of GB2^Ctr at position 5.42) (UniProt O88871). Conditions: + CuP; cell surface SNAP-GB1 labelled with fluorescent SNAP substrate; no ligand; parent: est. 2; read off a plot.
For a further assay, the target named is GB2^5.41. The conditions noted are these: + CuP; cell surface SNAP-GB1 labelled with fluorescent SNAP substrate; no ligand; parent: est. 2; read off a plot.
Assay [4] addresses GB1 double cysteine mutant with one cysteine in TM5 and one in TM1 (co-expressed with a non-mutated GB2). The conditions noted are these: + CuP, co-expressed with GB2Ctr, parent: est. 2, read off a plot.
Assay [5] addresses GB2 L711C^6.59 (in GB2^Ctr) (UniProt O88871). The conditions noted are these: + CuP; cell surface SNAP-GB1 labelled with fluorescent SNAP substrate; no ligand; parent: est. 2; read off a plot.
A further assay addresses GB2^6.54. Conditions: + CuP; cell surface SNAP-GB1 labelled with fluorescent SNAP substrate; no ligand; parent: est. 2; read off a plot.
Assay [6] concerns the target GB1 double cysteine mutant with one cysteine in TM4 and one in TM1 (co-expressed with a non-mutated GB2). Conditions: + CuP, co-expressed with GB2Ctr, parent: est. 2, read off a plot.
A further assay deals with GB2^5.45. Conditions: + CuP; cell surface SNAP-GB1 labelled with fluorescent SNAP substrate; no ligand; parent: est. 2; read off a plot.
Another assay concerns the target GB2^6.55. Conditions: + CuP; cell surface SNAP-GB1 labelled with fluorescent SNAP substrate; no ligand; parent: est. 2; read off a plot.

As to “GB1^Ctr (control GABAB1 subunit: SNAP-tagged rat GB1a truncated in the C-terminal region) I771C; L838C”, the results for the other: Oligomer (% total GB1) in assay [1] (+ GABA 100 μM) and in assay [1] (no agonist) were 2.5 % total GB1 and 1 % total GB1, respectively. On to “GB1^Ctr (control GABAB1 subunit: SNAP-tagged rat GB1a truncated in the C-terminal region) 1.45 Cys; 6.55 Cys”, for which the other: Oligomer (% total GB1) was 4 % total GB1 with GB1 1.45/6.55 (+ GABA 100 μM) and 2.5 % total GB1 with GB1 1.45/6.55 (no agonist). m1; m2 GB1:5.40 Cys; GB2:5.40 Cys: in the assay with GB2^5.40, the other: Change of GB1-GB2 dimer cross-linking (%) worked out at 12%. Regarding “GB1^Ctr (control GABAB1 subunit: SNAP-tagged rat GB1a truncated in the C-terminal region) 4.52 Cys; 6.55 Cys”, the other: Oligomer (% total GB1) amounted to 21 % total GB1 with GB1 4.52/6.55 (+ GABA 100 μM) and 16 % total GB1 in the assay with GB1 4.52/6.55 (no agonist). On to “GB1^Ctr (control GABAB1 subunit: SNAP-tagged rat GB1a truncated in the C-terminal region) 4.52 Cys; L838C”, for which the figures for the other: Oligomer (% total GB1) in assay [2] (+ GABA 100 μM) and in assay [2] (no agonist) were 12 % total GB1 and 7 % total GB1, respectively. Consider m1; m2 GB1:I771C; GB2:5.42 Cys, for which the other: Change of GB1-GB2 dimer cross-linking (%) in [3] worked out at 14%.

For the substance m1; m2 GB1:5.41 Cys; GB2:5.41 Cys, the other: Change of GB1-GB2 dimer cross-linking (%) with GB2^5.41 came out at 28%. As to “GB1^Ctr (control GABAB1 subunit: SNAP-tagged rat GB1a truncated in the C-terminal region) 1.45 Cys; I771C”, the other: Oligomer (% total GB1) is 12 % total GB1 in assay [4] (+ GABA 100 μM) and 5 % total GB1 in assay [4] (no agonist). On to m1; m2 GB1:I824C; GB2:L711C, for which the other: Change of GB1-GB2 dimer cross-linking (%) in [5] came out at 28%. Consider m1; m2 GB1:6.54 Cys; GB2:6.54 Cys, for which, in the assay with GB2^6.54, the other: Change of GB1-GB2 dimer cross-linking (%) came out at 23%. Consider “GB1^Ctr (control GABAB1 subunit: SNAP-tagged rat GB1a truncated in the C-terminal region) 1.45 Cys; 4.52 Cys”, for which the values for the other: Oligomer (% total GB1) in [6] (+ GABA 100 μM) and in [6] (no agonist) were 32 % total GB1 and 24 % total GB1, respectively. Consider m1; m2 GB1:5.45 Cys; GB2:5.45 Cys, for which the other: Change of GB1-GB2 dimer cross-linking (%) with GB2^5.45 was found to be 24%. On to m1; m2 GB1:6.55 Cys; GB2:6.55 Cys, for which the other: Change of GB1-GB2 dimer cross-linking (%) in the assay with GB2^6.55 was 32%.
